Three molecules from patent EP4361176A1 can be followed below.

In test [1] the target is human FcγRIIb extracellular domain with C-terminal His-tag (human) (UniProt P31994). As to the kind of experiment: SPR; binding amount / that of 04H1656-G1m/04L1610-lam1. Background: Surface plasmon resonance follows binding to a sensor surface in real time, without labels.
Test [2] has the same target. Nature of the test: SPR (Biacore T200), FcγRIIb, amount bound per unit captured antibody.
The target in test [3] is human CTLA4 (soluble analyte of the Biacore assays of Reference Example 3-3) (human) (UniProt P16410). As to the kind of experiment: SPR Biacore T200, 10 uM ATP.

Chain of human FcγRIIb extracellular domain with C-terminal His-tag (human) (P31994 43-217): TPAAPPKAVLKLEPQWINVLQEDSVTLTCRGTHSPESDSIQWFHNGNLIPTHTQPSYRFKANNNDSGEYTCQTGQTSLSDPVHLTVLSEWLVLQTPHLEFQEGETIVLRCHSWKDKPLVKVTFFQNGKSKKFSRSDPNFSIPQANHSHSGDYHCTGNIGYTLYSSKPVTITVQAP

B1: 04H1654-KT462/04L1610-lam1//04H1656-HT441/04L1610-lam1 (antibody, human IgG1, lambda)
heavy 1: QVQLVESGGGVVQPGGSLRLSCAASGFTFSSKTMNWVRQAPGKGLEWVSSISTQSHYIYYARSVRGRFTISRDNAKNSLYLQMNSLRAEDTAVYYCARYGKREDMLWVFDYWGQGTLVTVSSASTKGPSVFPLAPSSKSTSGGTAALGCLVKDYFPEPVTVSWNSGALTSGVHTFPAVLQSSGLYSLSSVVTVPSSSLGTQTYICNVNHKPSNTKVDKRVEPKSCDKTHTCPPCPAPEFQWGPMVFLFPPKPKDVLMISRTPEVTCVVVDVSDEEPEVKFNWYVDGVEVHNAKTKPREEQYNATYRVVSVLPVLHQDWLNGKEYKCKVSNDALPAPIEKTISKAKGQPREPQVYTLPPSRKEMTKNQVSLTCLVKGFYPSDIAVEWESNGQPENNYKTTPPVLDSDGSFFLYSKLTVDKSRWQQGNVFSCSVMHEALHNHYTQKSLSLSP
heavy 2: QVQLVESGGGVVQPGGSLRLSCAASGFTFSSKTMNWVRQAPGKGLEWVSSISTQSHYIYYAESVRGRFTISRDNAKNSLYLQMNSLRAEDTAVYYCARYGAREDMLWVFDYWGQGTLVTVSSASTKGPSVFPLAPSSKSTSGGTAALGCLVKDYFPEPVTVSWNSGALTSGVHTFPAVLQSSGLYSLSSVVTVPSSSLGTQTYICNVNHKPSNTKVDKRVEPKSCDKTHTCPPCPAPELLAGPSVFLFPPKPKDVLMISRTPEVTCVVVDVSHEEPEVKFNWYVDGVEVHNAKTKPREEQYNATYRVVSVLPVLHQDWLNGKEYKCKVSNDALPAPIEETISKAKGQPREPQVYTLPPSREEMTKNQVSLTCLVKGFYPSDIAVEWESNGQPENNYKTTPPVLDSDGSFFLYSKLTVDKSRWQQGNVFSCSVMHEALHNHYTQESLSLSP
light: QSALTQPPSASGSPGQSVTISCEGPSTGVGDYNWVHWYQQHPGKAPKLMIYFTSKKPSGVPDRFSGSKSGNTASLTVSGLQAEDEADYYCQTYAAPLGPMFGGGTKLTVLGQPKAAPSVTLFPPSSEELQANKATLVCLISDFYPGAVTVAWKADSSPVKAGVETTTPSKQSNNKYAASSYLSLTPEQWKSHRSYSCQVTHEGSTVEKTVAPTECS
Take B1: the Relative binding amount in test [1] amounted to 1.7. The Binding amount in test [2] is 0.014.

B2: 04H1389-G1m/04L1086-lam1 (antibody, human IgG1, lambda, V domains shown)
VH: EVQLVESGGGLVKPGGSLRLSCAASGFTFSSKTMNWVRQAPGKGLEWVSSISTQSHYIYYAESVKGRFTISRDNAKNSLYLQMNSLRAEDTAVYYCARYGKREDMLWVFDYWGQGTLVTVSS
VL: QSALTQPPSASGSPGQTVTISCDGPSTGVGDYNYVHWYQQHPGKAPKLMIYFTSKKPSGVPDRFSGSKSGNTASLTVSGLQAEDEADYFCQTYAAPLGPMFGGGTKLTVLG
B2: in test [3], the fold enhanced binding vs parent 04H1207-G1m/04L1086-lam1 worked out at 10 fold.

B3: 04H1382-G1m/04L1086-lam1 (antibody, human IgG1, lambda, V domains shown)
VH: EVQLVESGGGLVKPGGSLRLSCAASGFTFSSKTMNWVRQAPGKGLEWVSSISTQSHYIYYARSVKGRFTISRDNAKNSLYLQMNSLRAEDTAVYYCARYGKREDMLWVFDYWGQGTLVTVSS
VL: QSALTQPPSASGSPGQTVTISCDGPSTGVGDYNYVHWYQQHPGKAPKLMIYFTSKKPSGVPDRFSGSKSGNTASLTVSGLQAEDEADYFCQTYAAPLGPMFGGGTKLTVLG
Regarding B3, the fold enhanced binding vs parent 04H1208-G1m/04L1086-lam1 in test [3] stood at 10 fold.
